Data from patent publication US20130267025A1.

Assays:
[1] = target: endogenous Tctex-1 protein of PC3 human prostate cancer cells (human) (UniProt P63172); test: cell-based or functional assay
[2] = target: V5-tagged Tctex-1 (V5-Tctex-1 fusion protein), expressed from pcDNA3.2/V5/GW/D-TOPO (human) (UniProt P63172); test: cell-based or functional assay
Chain of V5-tagged Tctex-1 (V5-Tctex-1 fusion protein), expressed from pcDNA3.2/V5/GW/D-TOPO (human) (P63172 whole entry, the tested form may be a part): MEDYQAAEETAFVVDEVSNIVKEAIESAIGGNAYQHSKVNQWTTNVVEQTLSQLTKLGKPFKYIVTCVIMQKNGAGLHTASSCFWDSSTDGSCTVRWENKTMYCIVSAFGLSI

Chain of endogenous Tctex-1 protein of PC3 human prostate cancer cells (human) (P63172 whole entry, the tested form may be a part): as above

Substance: REIC/Dkk-3 protein overexpressed from adenovirus REIC/Dkk-3 (Ad-REIC) in PC3 cells (from UniProt Q9UBP4 22-350)
- apoptosis incidence (Hoechst 33342) in PC3 cells treated with Ad-REIC, group treated with shRNA-Tctex-1 [1]: 15%
- apoptosis incidence (Hoechst 33342) in PC3 cells treated with Ad-REIC, group treated with the GFP plasmid [1]: 30%
- apoptosis incidence (Hoechst 33342) in PC3 cells treated with Ad-REIC, group treated with the Tctex-1 expression plasmid [2]: 75%
